*1 amine or outer side, *2 acyl side, *3 side chain or, on linkers, in order; H or OH if unused. Where no end group is shown, it is not given here. Side-chain parts run from the residue outwards. The star is where a group is joined. C18 diacid = O=C(O)CCCCCCCCCCCCCCCCC(=O)*; C16 diacid = O=C(O)CCCCCCCCCCCCCCC(=O)*; γGlu = O=C(O)[C@H](CCC(=O)[*:2])N[*:1]; AEEA = NCCOCCOCC(=O)O
T1: human GIP receptor (human, UniProt P48546 22-466)
T1 sequence (looked up): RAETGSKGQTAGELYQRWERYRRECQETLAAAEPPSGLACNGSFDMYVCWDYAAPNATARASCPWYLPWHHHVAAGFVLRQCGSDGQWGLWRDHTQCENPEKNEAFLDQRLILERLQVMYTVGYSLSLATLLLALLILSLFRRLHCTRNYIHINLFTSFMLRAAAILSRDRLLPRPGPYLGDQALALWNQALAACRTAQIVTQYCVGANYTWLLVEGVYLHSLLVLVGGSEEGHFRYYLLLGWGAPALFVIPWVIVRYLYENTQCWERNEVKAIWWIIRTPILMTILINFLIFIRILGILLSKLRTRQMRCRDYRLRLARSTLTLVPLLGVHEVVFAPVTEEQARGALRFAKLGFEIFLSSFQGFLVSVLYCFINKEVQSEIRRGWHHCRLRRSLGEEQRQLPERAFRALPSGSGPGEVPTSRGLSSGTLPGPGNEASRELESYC

B1: AT627 (peptide)
peptide: EGTFISDYSIAMDKIK(C18 diacid)QQDFVNWLLAQKPSSGAPPPS-OH
modifications: N-terminus assumed
SMILES: CC[C@H](C)[C@H](NC(=O)[C@H](CO)NC(=O)[C@H](Cc1ccc(O)cc1)NC(=O)[C@H](CC(=O)O)NC(=O)[C@H](CO)NC(=O)[C@@H](NC(=O)[C@H](Cc1ccccc1)NC(=O)[C@@H](NC(=O)CNC(=O)[C@@H](N)CCC(=O)O)[C@@H](C)O)[C@@H](C)CC)C(=O)N[C@@H](C)C(=O)N[C@@H](CCSC)C(=O)N[C@@H](CC(=O)O)C(=O)N[C@@H](CCCCN)C(=O)N[C@H](C(=O)N[C@@H](CCCCNC(=O)CCCCCCCCCCCCCCCCC(=O)O)C(=O)N[C@@H](CCC(N)=O)C(=O)N[C@@H](CCC(N)=O)C(=O)N[C@@H](CC(=O)O)C(=O)N[C@@H](Cc1ccccc1)C(=O)N[C@H](C(=O)N[C@@H](CC(N)=O)C(=O)N[C@@H](Cc1c[nH]c2ccccc12)C(=O)N[C@@H](CC(C)C)C(=O)N[C@@H](CC(C)C)C(=O)N[C@@H](C)C(=O)N[C@@H](CCC(N)=O)C(=O)N[C@@H](CCCCN)C(=O)N1CCC[C@H]1C(=O)N[C@@H](CO)C(=O)N[C@@H](CO)C(=O)NCC(=O)N[C@@H](C)C(=O)N1CCC[C@H]1C(=O)N1CCC[C@H]1C(=O)N1CCC[C@H]1C(=O)N[C@@H](CO)C(=O)O)C(C)C)[C@@H](C)CC
B2: AT629 (peptide)
peptide: EGTFISDYSIAMDKIK([AEEA-AEEA-γGlu-C16 diacid])QQDFVNWLLAQKPSSGAPPPS-OH
modifications: N-terminus assumed
SMILES: CC[C@H](C)[C@H](NC(=O)[C@H](CO)NC(=O)[C@H](Cc1ccc(O)cc1)NC(=O)[C@H](CC(=O)O)NC(=O)[C@H](CO)NC(=O)[C@@H](NC(=O)[C@H](Cc1ccccc1)NC(=O)[C@@H](NC(=O)CNC(=O)[C@@H](N)CCC(=O)O)[C@@H](C)O)[C@@H](C)CC)C(=O)N[C@@H](C)C(=O)N[C@@H](CCSC)C(=O)N[C@@H](CC(=O)O)C(=O)N[C@@H](CCCCN)C(=O)N[C@H](C(=O)N[C@@H](CCCCNC(=O)COCCOCCNC(=O)COCCOCCNC(=O)CC[C@H](NC(=O)CCCCCCCCCCCCCCC(=O)O)C(=O)O)C(=O)N[C@@H](CCC(N)=O)C(=O)N[C@@H](CCC(N)=O)C(=O)N[C@@H](CC(=O)O)C(=O)N[C@@H](Cc1ccccc1)C(=O)N[C@H](C(=O)N[C@@H](CC(N)=O)C(=O)N[C@@H](Cc1c[nH]c2ccccc12)C(=O)N[C@@H](CC(C)C)C(=O)N[C@@H](CC(C)C)C(=O)N[C@@H](C)C(=O)N[C@@H](CCC(N)=O)C(=O)N[C@@H](CCCCN)C(=O)N1CCC[C@H]1C(=O)N[C@@H](CO)C(=O)N[C@@H](CO)C(=O)NCC(=O)N[C@@H](C)C(=O)N1CCC[C@H]1C(=O)N1CCC[C@H]1C(=O)N1CCC[C@H]1C(=O)N[C@@H](CO)C(=O)O)C(C)C)[C@@H](C)CC
B3: AT626 (peptide)
peptide: EGTFISDYSIAMDKIK(C16 diacid)QQDFVNWLLEGGPSSGAPPPS-OH
modifications: N-terminus assumed
SMILES: CC[C@H](C)[C@H](NC(=O)[C@H](CO)NC(=O)[C@H](Cc1ccc(O)cc1)NC(=O)[C@H](CC(=O)O)NC(=O)[C@H](CO)NC(=O)[C@@H](NC(=O)[C@H](Cc1ccccc1)NC(=O)[C@@H](NC(=O)CNC(=O)[C@@H](N)CCC(=O)O)[C@@H](C)O)[C@@H](C)CC)C(=O)N[C@@H](C)C(=O)N[C@@H](CCSC)C(=O)N[C@@H](CC(=O)O)C(=O)N[C@@H](CCCCN)C(=O)N[C@H](C(=O)N[C@@H](CCCCNC(=O)CCCCCCCCCCCCCCC(=O)O)C(=O)N[C@@H](CCC(N)=O)C(=O)N[C@@H](CCC(N)=O)C(=O)N[C@@H](CC(=O)O)C(=O)N[C@@H](Cc1ccccc1)C(=O)N[C@H](C(=O)N[C@@H](CC(N)=O)C(=O)N[C@@H](Cc1c[nH]c2ccccc12)C(=O)N[C@@H](CC(C)C)C(=O)N[C@@H](CC(C)C)C(=O)N[C@@H](CCC(=O)O)C(=O)NCC(=O)NCC(=O)N1CCC[C@H]1C(=O)N[C@@H](CO)C(=O)N[C@@H](CO)C(=O)NCC(=O)N[C@@H](C)C(=O)N1CCC[C@H]1C(=O)N1CCC[C@H]1C(=O)N1CCC[C@H]1C(=O)N[C@@H](CO)C(=O)O)C(C)C)[C@@H](C)CC
B4: AT625 (peptide)
peptide: EGTFISDYSIAMDKIK(C16 diacid)QQDFVNWLLEQKPSSGAPPPS-OH
modifications: N-terminus assumed
SMILES: CC[C@H](C)[C@H](NC(=O)[C@H](CO)NC(=O)[C@H](Cc1ccc(O)cc1)NC(=O)[C@H](CC(=O)O)NC(=O)[C@H](CO)NC(=O)[C@@H](NC(=O)[C@H](Cc1ccccc1)NC(=O)[C@@H](NC(=O)CNC(=O)[C@@H](N)CCC(=O)O)[C@@H](C)O)[C@@H](C)CC)C(=O)N[C@@H](C)C(=O)N[C@@H](CCSC)C(=O)N[C@@H](CC(=O)O)C(=O)N[C@@H](CCCCN)C(=O)N[C@H](C(=O)N[C@@H](CCCCNC(=O)CCCCCCCCCCCCCCC(=O)O)C(=O)N[C@@H](CCC(N)=O)C(=O)N[C@@H](CCC(N)=O)C(=O)N[C@@H](CC(=O)O)C(=O)N[C@@H](Cc1ccccc1)C(=O)N[C@H](C(=O)N[C@@H](CC(N)=O)C(=O)N[C@@H](Cc1c[nH]c2ccccc12)C(=O)N[C@@H](CC(C)C)C(=O)N[C@@H](CC(C)C)C(=O)N[C@@H](CCC(=O)O)C(=O)N[C@@H](CCC(N)=O)C(=O)N[C@@H](CCCCN)C(=O)N1CCC[C@H]1C(=O)N[C@@H](CO)C(=O)N[C@@H](CO)C(=O)NCC(=O)N[C@@H](C)C(=O)N1CCC[C@H]1C(=O)N1CCC[C@H]1C(=O)N1CCC[C@H]1C(=O)N[C@@H](CO)C(=O)O)C(C)C)[C@@H](C)CC

Target: T1, human GIP receptor
Test: cell-based or functional assay

Binder | cAMP agonism % Emax | cAMP antagonism | cAMP antagonism % inhib | cAMP antagonism pIC50
B1 | 0% | 15.9 nM | 97% | 7.8
B2 | 0% | 17.1 nM | 93% | 7.8
B3 | 0% | 4.47 nM | 100% | 8.4
EGTFISDYSIAMDKIK(C18)QQDFVNWLLAQKPSSGAPPPS-OH [AT628] | 0% | 58.4 nM | 94% | 7.2
B4 | 0% | 3.98 nM | 93% | 8.4

— US20220298218A1 (ANTAG THERAPEUTICS, published 2022)
